{"source": "patent US20150359861", "molecular_target": "Nicotinamide phosphoribosyltransferase (Nampt) (UniProt P43490)", "sequence (P43490 whole entry, looked up)": "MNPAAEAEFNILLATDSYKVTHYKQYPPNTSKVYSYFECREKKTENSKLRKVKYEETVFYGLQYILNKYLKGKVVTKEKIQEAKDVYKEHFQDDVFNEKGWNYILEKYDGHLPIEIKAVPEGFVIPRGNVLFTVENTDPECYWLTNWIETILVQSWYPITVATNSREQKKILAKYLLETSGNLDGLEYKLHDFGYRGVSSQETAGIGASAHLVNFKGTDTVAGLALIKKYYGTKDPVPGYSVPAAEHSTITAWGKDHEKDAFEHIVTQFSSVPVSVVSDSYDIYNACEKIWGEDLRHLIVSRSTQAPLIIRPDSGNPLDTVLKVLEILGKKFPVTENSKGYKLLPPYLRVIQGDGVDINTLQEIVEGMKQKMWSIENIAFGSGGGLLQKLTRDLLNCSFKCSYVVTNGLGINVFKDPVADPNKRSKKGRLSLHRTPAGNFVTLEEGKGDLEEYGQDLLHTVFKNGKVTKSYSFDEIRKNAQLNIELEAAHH"}
{"substance": "purified recombinant human Eno1", "values": [{"measurement": "Nampt activity (Cyclex Nampt activity assay kit on anti-Nampt immunoprecipitates of lysates from myotubes treated with 500 or 1000 ug/ml Eno1 for 48 hours)", "value": "Eno1 treatment increased Nampt activity"}]}
